Data: article PMC8358021, “Structural basis of the complementary activity of two ketosynthases in aryl polyene biosynthesis” (Scientific Reports, 2021)

Key:
[1] = target: T1, AbApeO-AbApeC heterodimer (ketosynthase-chain length factor complex of the aryl polyene biosynthesis gene … (Acinetobacter baumannii)); assay: ITC; 2.0 mM holo ACP1 or holo ACP2 injected (19 injections of 3 µl) into 0.1 mM AbApeO-AbApeC or AbApeR; 25 °C; 40 mM potassium phosphate pH 7.0; 2 mM 2-mercaptoethanol; details: both partners purified
T1 construct: ApeO, ketosynthase of the APE biosynthesis gene cluster, Acinetobacter baumannii (pathogenic strain, global clone 2); ApeC, chain length factor of the APE biosynthesis gene cluster, Acinetobacter baumannii (pathogenic strain, global clone 2); The His6 tag on AbApeO is said to be not cleavable; The complex was formed by co-expression and used as one molecule in ITC; also called ApeO-ApeC; …

[2] = target: T2, AbApeR (FabB-like homodimeric ketosynthase of the A. baumannii APE gene cluster) (Acinetobacter baumannii); assay: as above; details: both partners purified
T2 construct: ApeR, ketoacyl-ACP synthase I (FabB)-like ketosynthase of the APE biosynthesis gene cluster, Acinetobacter baumannii (pathogenic strain, global clone 2); not shown: His6, N-terminal, cleaved

B1: holo ACP2 (ApeF), acyl carrier protein 2 of the A. baumannii APE gene cluster (natural protein)
chain: MSNLADELKQMIIDVLALEDITIADIDTEAPLFGEGLGLDSIDALELGLALKKRYNIHLNAESDETKQHFKSIQSLVALVEAQQKS
modifications: 4'-phosphopantetheine (holo form)
stoichiometry N [1]: 1.21
Kd [2]: 41 µM
stoichiometry N [2]: 0.71
